US20170355757A1 (Regeneron, published 2017)

T1: monkey C5-mmh (monkey, UniProt P01031 19-1676 (human entry), limits assumed)
T1 construct: recombinant, with C-terminal myc-myc-hexahistidine tag
T1 chain: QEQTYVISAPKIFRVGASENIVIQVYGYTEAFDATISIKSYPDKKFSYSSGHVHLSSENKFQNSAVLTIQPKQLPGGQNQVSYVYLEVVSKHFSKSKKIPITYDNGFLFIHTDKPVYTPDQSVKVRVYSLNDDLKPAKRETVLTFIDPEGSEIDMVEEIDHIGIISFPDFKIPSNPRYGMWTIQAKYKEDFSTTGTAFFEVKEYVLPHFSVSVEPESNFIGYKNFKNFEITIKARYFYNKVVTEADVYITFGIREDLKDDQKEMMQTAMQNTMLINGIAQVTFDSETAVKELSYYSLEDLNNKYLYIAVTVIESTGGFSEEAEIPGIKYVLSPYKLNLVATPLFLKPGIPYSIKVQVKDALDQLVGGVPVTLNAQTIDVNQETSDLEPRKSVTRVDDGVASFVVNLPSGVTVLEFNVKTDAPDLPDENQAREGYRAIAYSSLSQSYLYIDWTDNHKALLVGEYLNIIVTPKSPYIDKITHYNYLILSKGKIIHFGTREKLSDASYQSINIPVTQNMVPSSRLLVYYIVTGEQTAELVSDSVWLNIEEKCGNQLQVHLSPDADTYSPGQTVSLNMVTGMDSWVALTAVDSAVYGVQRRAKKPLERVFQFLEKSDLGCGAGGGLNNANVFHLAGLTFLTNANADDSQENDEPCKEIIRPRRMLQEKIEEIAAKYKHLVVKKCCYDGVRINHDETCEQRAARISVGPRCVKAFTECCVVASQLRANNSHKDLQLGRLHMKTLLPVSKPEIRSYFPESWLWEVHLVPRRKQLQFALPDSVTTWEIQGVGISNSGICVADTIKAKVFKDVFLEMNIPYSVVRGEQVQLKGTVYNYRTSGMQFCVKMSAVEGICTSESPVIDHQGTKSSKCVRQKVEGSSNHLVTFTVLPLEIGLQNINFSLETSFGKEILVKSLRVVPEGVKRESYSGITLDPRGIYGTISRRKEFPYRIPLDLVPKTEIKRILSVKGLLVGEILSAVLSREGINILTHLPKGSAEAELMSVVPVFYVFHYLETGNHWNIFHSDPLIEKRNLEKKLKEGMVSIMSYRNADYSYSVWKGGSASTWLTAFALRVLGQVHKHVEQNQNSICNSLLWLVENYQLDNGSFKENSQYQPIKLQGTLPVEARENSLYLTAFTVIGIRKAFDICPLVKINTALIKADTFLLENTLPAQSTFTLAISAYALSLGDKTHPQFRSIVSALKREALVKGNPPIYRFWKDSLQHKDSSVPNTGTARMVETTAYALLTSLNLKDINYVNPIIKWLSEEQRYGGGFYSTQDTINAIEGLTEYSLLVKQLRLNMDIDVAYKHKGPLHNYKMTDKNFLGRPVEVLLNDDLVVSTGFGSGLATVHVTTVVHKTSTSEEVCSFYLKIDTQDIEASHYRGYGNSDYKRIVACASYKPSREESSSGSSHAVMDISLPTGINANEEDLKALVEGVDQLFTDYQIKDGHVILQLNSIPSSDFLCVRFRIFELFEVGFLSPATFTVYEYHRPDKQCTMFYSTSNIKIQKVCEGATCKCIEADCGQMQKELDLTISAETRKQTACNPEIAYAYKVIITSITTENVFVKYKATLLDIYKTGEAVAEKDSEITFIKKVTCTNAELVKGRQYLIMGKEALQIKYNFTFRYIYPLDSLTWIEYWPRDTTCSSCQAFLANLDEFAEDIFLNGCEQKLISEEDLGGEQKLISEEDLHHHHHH


Key:
human C5 [1] = target: T2, human C5 (human, UniProt P01031 19-1676); assay: cell-based or functional assay
human C5 [2] = target: T2, human C5; assay: SPR (Biacore), mAb captured, dissociation of human C5 at pH7.4 vs pH6.0, 37°C
Procedure: Effect of pH on the rate of dissociation of recombinant human C5 bound to purified anti-C5 monoclonal antibodies was determined using a real-time surface plasmon resonance biosensor using a Biacore T200 instrument. The Biacore sensor surface was first derivatized by amine coupling with a monoclonal mouse anti-human Fc antibody (GE, # BR-1008-39) to capture anti-C5 monoclonal antibodies expressed with human IgG4 Fc. All Biacore binding studies were performed using two running buffers PBS-T, pH7.4 (0.01M Na₂HPO₄/NaH₂PO₄, 0.15M NaCl, 0.05% v/v Tween-20, adjusted to pH7.4) and PBS-T, pH6.0 (0.01M Na₂HPO₄/NaH₂PO₄, 0.15M NaCl, 0.05% v/v Tween-20, adjusted to pH6.0). […] Binding dissociative half-lives (t %) were calculated from kd as: […]

monkey C5-mmh [3] = target: T1, monkey C5-mmh; assay: SPR (Biacore), mAb captured, dissociation of monkey C5 at pH7.4 vs pH6.0, 25°C
human C5 R885H-mmh = human C5 R885H-mmh (human, UniProt P01031 19-1676); assay: cell-based or functional assay
human C5 [4] = target: T2, human C5; assay: cell-based or functional assay; remark: listed apart in the source
human C5 R885C-mmh = human C5 R885C-mmh (human, UniProt P01031 19-1676); assay: cell-based or functional assay
African green monkey C5 [5] = target: T3, African green monkey C5 (African green monkey); assay: cell-based or functional assay
Cynomolgus monkey C5 = Cynomolgus monkey C5 (cynomolgus monkey, UniProt A0A2K5U1T1 19-1676); assay: cell-based or functional assay
monkey C5-mmh [6] = target: T1, monkey C5-mmh; assay: SPR (Biacore), mAb captured, dissociation of monkey C5 at pH7.4 vs pH6.0, 37°C
African green monkey C5 [7] = target: T3, African green monkey C5; assay: cell-based or functional assay; remark: listed apart in the source

Binder | Human AP % Max Inhibition, hemolysis assay, NHS (human C5 [1]) [%] | Human AP IC50, hemolysis assay, NHS (human C5 [1]) [nM] | Human CP % Max Inhibition, hemolysis assay, NHS (human C5 [1]) [%] | Human CP IC50, hemolysis assay, NHS (human C5 [1]) [nM] | t½ Ratio pH7.4/pH6.0 (human C5 [2]) | t½ Ratio pH7.4/pH6.0 (monkey C5-mmh [3]) | IC50, inhibition of CDC of Daudi cells, C5 depleted human serum and 6.6 nM C5 Variant R885H (human C5 R885H-mmh) [nM] | IC50, inhibition of CDC of Daudi cells, 1.66% human serum (human C5 [4]) [nM] | IC50, inhibition of CDC of Daudi cells, C5 depleted human serum and 6.6 nM C5 Variant R885C (human C5 R885C-mmh) [nM] | IC50, inhibition of CDC of Daudi cells, 1.66% African Green monkey serum (African green monkey C5 [5]) [nM] | Cyno AP % Max Inhibition, hemolysis assay, 5% serum (Cynomolgus monkey C5) [%] | Cyno CP % Max Inhibition, hemolysis assay, 5% serum (Cynomolgus monkey C5) [%] | Cyno Serum AP IC50, hemolysis assay, 5% serum (Cynomolgus monkey C5) [nM] | Cyno Serum CP IC50, hemolysis assay, 5% serum (Cynomolgus monkey C5) [nM] | t½ Ratio pH7.4/pH6.0 (monkey C5-mmh [6]) | AGM AP % Max Inhibition, hemolysis assay, 5% serum (African green monkey C5 [7]) [%] | AGM CP % Max Inhibition, hemolysis assay, 5% serum (African green monkey C5 [7]) [%] | AGM Serum AP IC50, hemolysis assay, 5% serum (African green monkey C5 [7]) [nM] | AGM Serum CP IC50, hemolysis assay, 5% serum (African green monkey C5 [7]) [nM]
H4H11686N (antibody, human IgG4, V domains shown, tested with H4H prefix (human IgG4 Fc with S108P hinge mutation); also called H2M11686N) VH: QVQLVESGGGLVKPGGSLRLSCAASGFTFSDYYMSWIRQAPGKGLEWVSYISSSGNTIKYADSMKGRFTISRDNAKKSLFVEMNSLRAEDTAVYYCARYKSSSDYFDHWGQGTLVTVSS VL: EIVLTQSPATLSLSPGERATLSCRASQSVRSYLAWYQQKPGQAPRLLIYDASNRATAIPARFSGSGSGTDFTLTISSLEPEDLAVYYCQQSGNWPLTFGGGTKVEIK | 76.2 | 13 | 97.4 | 3.09 | 0.8 | 0.37 | 1.1 | 1.5 | 0.45 | 4.4 | 98.7 | 94.5 | 9 | 14.1 | 0.5 | 50.4 | 49.3 | 163 | 48.2
H4H12176P2 (antibody, human IgG4, V domains shown, H4H: human IgG4 Fc with S108P hinge mutation) VH: EVQLVESGGGLVQPGGSLRLSCAASGFHSNRYWMDWVRQAPGKGLEWVANIKQDGSEENYVDSVKGRFTISRDNAKNSLYLQMNSLRAEDTAVYYCARDRSTSWVPYWFFDLWGRGTLVTVSS VL: not shown | 69.9 | 16.5 | 94.1 | 4.58 | ≤ 0.4 | ≤ 9.1 | 2.1 | 2.7 | 1.3 | 3.5 | 99.3 | 97.5 | 7.7 | 14.7 | 2.8 | 83.2 | 91 | 47.7 | 30.4
H4H12168P (antibody, human IgG4, V domains shown, H4H: human IgG4 Fc with S108P hinge mutation) VH: QVQLVESGGGVVQPGGSLRLSCAASGFTFGGHAMHWVRQAPGKGLEWLAVISSDGSNKQYADSVKGRFTISRDNPKNTLYLQMNSLRVGDTAIYYCAKEVAPRYYYYGLDVWGQGTTVTVSS VL: DIQMTQSPSSLSASVGDRVTITCRASQDISNFLAWYQQKPGKVPKLLIYTASTLQSGVPSRFSGSGSGTDFTLTVSSLQPEDVATYYCQKYAGALTFGPGTKVDIK | 66.2 | 28.5 | 97.5 | 3.33 | 1 | 3.8 | 2.3 | 1.5 | 0.86 | 2 | 99.7 | 99 | 5.45 | 10.3 | 4 | 88.2 | 90.8 | 22.5 | 28
H4H12167P (antibody, human IgG4, V domains shown, H4H: human IgG4 Fc with S108P hinge mutation) VH: QVQLVESGGGLVKPGGSLRLSCAASGFTFSDSYMSWIRQAPGKGLEWISYIGSSGNTFYYADSVKGRFTISRDNANNLLYLQMTSLRAEDTAVYYCAREEGDFWSAVDSWGQGTLVTVSS VL: DIQLTQSPSFLSASVGDRVTITCWASQGISSYLAWYQQKPGKAPKLLIHTASTLQSGVPSRFSGSGSGTEFTLTISNLQPEDFATYYCQQLNSYPFTFGPGTKVDIK | 64.8 | 15.5 | 99.9 | 3.68 | 0.2 | 9.2 | 1.9 | 2.5 | 1 | 3.5 | 98.3 | 100 | 7.6 | 21.3 | 4.4 | 53.4 | 90.5 | 69.5 | 69.5
